Assay results reported in IntAct's records for PubMed 22615398.

Assays:
gemi_human GMNN [1] = target: gemi_human GMNN (UniProt O75496)
gemi_human GMNN [2] = target: gemi_human GMNN (UniProt O75496); remark: listed apart in the source

Chain of gemi_human GMNN (O75496 whole entry): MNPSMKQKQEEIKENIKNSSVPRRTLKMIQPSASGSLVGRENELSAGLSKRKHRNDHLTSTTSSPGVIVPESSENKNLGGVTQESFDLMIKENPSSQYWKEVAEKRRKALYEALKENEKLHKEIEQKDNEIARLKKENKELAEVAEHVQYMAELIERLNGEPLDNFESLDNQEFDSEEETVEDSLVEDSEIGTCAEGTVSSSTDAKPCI
Chain of Homeobox protein Hox-C9 (Homo sapiens), P31274 R193A;K194A;K195A;R196A (P31274 whole entry R193A/K194A/K195A/R196A): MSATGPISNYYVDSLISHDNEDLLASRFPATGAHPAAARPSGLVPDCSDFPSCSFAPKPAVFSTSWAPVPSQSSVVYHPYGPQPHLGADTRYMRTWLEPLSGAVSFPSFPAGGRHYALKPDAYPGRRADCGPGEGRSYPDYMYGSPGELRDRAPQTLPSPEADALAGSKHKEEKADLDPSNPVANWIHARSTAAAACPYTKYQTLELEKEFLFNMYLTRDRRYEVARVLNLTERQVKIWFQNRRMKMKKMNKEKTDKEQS
Chain of Homeobox protein Hox-C9 (Homo sapiens), P31274 R234A;M245A (P31274 whole entry R234A/M245A): as the sequence (P31274 whole entry R193A/K194A/K195A/R196A) above, with A193R, A194K, A195K, A196R, R234A, M245A counted along it
Chain of Paired box protein Pax-6 (Homo sapiens), P26367 A252R;A263M (P26367 whole entry A252R/A263M): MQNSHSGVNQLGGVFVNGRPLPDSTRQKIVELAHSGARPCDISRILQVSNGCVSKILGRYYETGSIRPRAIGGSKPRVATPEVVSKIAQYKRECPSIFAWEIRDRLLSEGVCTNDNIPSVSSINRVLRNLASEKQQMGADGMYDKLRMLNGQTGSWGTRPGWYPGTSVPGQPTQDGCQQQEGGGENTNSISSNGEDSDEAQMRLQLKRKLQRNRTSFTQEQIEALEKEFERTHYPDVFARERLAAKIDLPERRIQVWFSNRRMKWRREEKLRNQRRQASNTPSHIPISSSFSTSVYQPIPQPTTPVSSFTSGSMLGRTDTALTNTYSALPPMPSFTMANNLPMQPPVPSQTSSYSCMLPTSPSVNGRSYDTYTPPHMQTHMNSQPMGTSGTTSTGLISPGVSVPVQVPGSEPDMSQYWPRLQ

effect of a mutation on the interaction (gemi_human GMNN [1]) | effect of a mutation on the interaction (gemi_human GMNN [2]) | Substance
increasing interaction strength |  | Paired box protein Pax-6 (Homo sapiens), P26367 A252R;A263M
 | decreasing interaction strength | Homeobox protein Hox-C9 (Homo sapiens), P31274 R234A;M245A
 | decreasing interaction strength | Homeobox protein Hox-C9 (Homo sapiens), P31274 R193A;K194A;K195A;R196A
